From patent publication US7390625B2, “Apoptosis-associated protein and use thereof” (Takeda Pharmaceutical Company Limited, priority 2002, dated 2008)

T1: ASK1 (Homo sapiens, UniProt Q99683)
T1 construct: Myc; expressed in transfected cells; host or cells: HEK293
T1 sequence (Q99683 1-1374): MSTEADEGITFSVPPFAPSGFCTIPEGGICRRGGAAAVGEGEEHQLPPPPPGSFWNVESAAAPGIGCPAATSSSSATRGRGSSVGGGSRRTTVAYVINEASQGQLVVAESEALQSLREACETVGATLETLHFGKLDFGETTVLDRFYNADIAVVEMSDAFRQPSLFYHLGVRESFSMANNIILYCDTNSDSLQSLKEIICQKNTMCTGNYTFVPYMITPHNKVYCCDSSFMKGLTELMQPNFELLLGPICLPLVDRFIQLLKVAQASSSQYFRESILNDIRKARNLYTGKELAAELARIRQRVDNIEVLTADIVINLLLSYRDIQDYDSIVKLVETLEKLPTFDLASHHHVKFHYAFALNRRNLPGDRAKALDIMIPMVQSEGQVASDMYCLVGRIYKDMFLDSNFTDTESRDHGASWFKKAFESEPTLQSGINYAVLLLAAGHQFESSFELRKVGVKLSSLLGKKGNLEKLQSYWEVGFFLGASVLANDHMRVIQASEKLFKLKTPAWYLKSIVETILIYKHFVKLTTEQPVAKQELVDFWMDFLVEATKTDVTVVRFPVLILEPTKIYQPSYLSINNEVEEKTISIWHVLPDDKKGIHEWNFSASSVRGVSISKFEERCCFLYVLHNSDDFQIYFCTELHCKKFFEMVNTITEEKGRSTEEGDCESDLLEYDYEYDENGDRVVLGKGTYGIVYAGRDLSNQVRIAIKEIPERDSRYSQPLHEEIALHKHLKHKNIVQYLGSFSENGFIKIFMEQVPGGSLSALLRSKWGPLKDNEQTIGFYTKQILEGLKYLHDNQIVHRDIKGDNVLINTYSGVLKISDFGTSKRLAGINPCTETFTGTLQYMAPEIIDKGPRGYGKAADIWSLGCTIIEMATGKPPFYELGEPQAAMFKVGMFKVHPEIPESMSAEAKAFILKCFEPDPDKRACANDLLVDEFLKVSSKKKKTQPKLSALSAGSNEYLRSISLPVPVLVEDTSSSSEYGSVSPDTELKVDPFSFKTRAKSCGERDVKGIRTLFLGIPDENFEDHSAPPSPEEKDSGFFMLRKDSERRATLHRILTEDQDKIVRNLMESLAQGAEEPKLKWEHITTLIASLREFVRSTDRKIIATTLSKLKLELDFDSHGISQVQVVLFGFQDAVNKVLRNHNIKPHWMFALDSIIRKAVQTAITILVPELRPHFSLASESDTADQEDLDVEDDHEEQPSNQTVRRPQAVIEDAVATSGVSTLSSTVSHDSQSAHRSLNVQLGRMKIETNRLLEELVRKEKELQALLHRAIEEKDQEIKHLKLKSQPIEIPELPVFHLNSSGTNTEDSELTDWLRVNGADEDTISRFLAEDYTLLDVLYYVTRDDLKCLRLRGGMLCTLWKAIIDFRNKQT


Key:
HeLa cells = assay: Cell death assay in HeLa cells transiently expressing CFP fusion proteins; type: cell-based
Experimental: FIGS. 6A-B show the induction of cell death by ABP1 in HeLa cells. FIG. 6A: Fluorescence photomicrographs at 36 hours after HeLa cells were transfected with CFP or the CFP-ABP1 plasmid (upper panel) and differential interference photomicrographs for the same fields (lower panel) are shown. FIG. 6B: The ratio (%) of cell death at 36 hours after transfection is shown.
FIGS. 10A-B show the induction of cell death by an ABP1-deficient variant. FIG. 10A: A schematic diagram of the ABP1-deficient variant is shown. […] FIG. 10B: The ratio (%) of cell death at 36 hours after transfection in cells introduced with the ABP1-deficient variant is shown.
• (1) To examine the intracellular localization and function of ABP1, HeLa cells were transfected with the CFP-ABP1 plasmid [prepared by subcloning ABP1 cDNA prepared by PCR into pECFP-C1 (Clontech)], which was also used in the immunoprecipitation experiment, and which expresses a fusion protein of ABP1 with CFP at the N-terminal-[transfection conducted using FuGENE6 (Roche Diagnostics K.K) as directed in the instruction manual thereof] to allow the transient expression of the protein, and CFP fluorescence was examined over time using a fluorescence microscope. […] This calculation was made for CFP-positive cells.
As described above, ABP1 has none of the functional domains of existing apoptosis-related factors. […]

ASK1 [1] = target: T1, ASK1; assay: Co-immunoprecipitation of ABP1 and ASK1 co-expressed in HEK293 cells; type: binding
Experimental: FIGS. 4A-B show the results of binding experiments of ABP1 and ASK1. FIG. 4A: HEK293 cells were transfected with Flag-ABP1 and the Myc-ASK1 plasmid, the cells were recovered after 24 hours, immunoprecipitation with an anti-Flag antibody was conducted, and immunoblot analysis was conducted using an anti-Myc antibody. FIG. 4B: HEK293 cells were transfected with Flag-ASK1 and the CFP-ABP1 plasmid, the cells were recovered after 24 hours, immunoprecipitation with an anti-Flag antibody was conducted, and immunoblot analysis was conducted using an anti-GFP antibody. Note that CFP is a variant of GFP and can be recognized by an anti-GFP antibody. For both FIGS. 4A and B, the two right lanes show the results obtained with H2O2 treatment (0.5 mM, 1 hour). […] IP stands for immunoprecipitation, and IB stands for immunoblot.
Two fusion proteins, i.e., Flag-ABP1 and Myc-ASK1, were co-expressed in HEK293 cells. […] The antibodies used were anti-Flag antibody (described above) and anti-Myc antibody (Clone 9E10, Calbiochem). This binding was enhanced by treatment with H2O2, which is ASK1 activation factor. […] The antibodies used were anti-Flag antibody (described above) and anti-GFP antibody (Medical & Biological Laboratories CO.).

JNK = assay: Immunoblot with anti-phosphorylated JNK antibody in PAE-ABP1 cells; type: cell-based, porcine; conditions: 12 hours after tetracycline removal
Source text: (§1) FIGS. 11A-B show the activation of ASK1, JNK, and p38 by ABP1. FIG. 11A: PAE-ABP1 cells were cultivated in the absence of tetracycline, the activation of endogenous JNK and p38 was examined by immunoblot analysis using each anti-phosphorylated protein antibody. FIG. 11B: PAE-ABP1 cells were cultivated in the absence of tetracycline, the activation of endogenous ASK1 was examined by immunoblot analysis using an anti-phosphorylated protein antibody. IB stands for immunoblot.
(§2) The activation of JNK and p38 during induction of the expression of ABP1 was investigated using respective anti-phosphorylated protein antibodies using PAE-ABP1 cells. The antibodies used were an anti-phosphorylated JNK antibody (Cell Signaling), an anti-phosphorylated p38 antibody (Cell Signaling), and an anti-phosphorylated ASK1 antibody (Tobiume et al., EMBO Rep., 2, 222-228, 2001). The cells were lysed using a lysis buffer (described above) in the same manner as Example 4, the lysate was centrifuged, the supernatant was recovered and reacted with an anti-Myc antibody (Clone 9E10, Calbiochem), Protein A-sepharose 4B (Zymed Laboratories) was added, incubation was conducted for 30 minutes, the reaction mixture was washed with the lysis buffer three times, an SDS sample buffer (described above) was added, and the same procedure as the immunoblotting method was followed.

PAE-ABP1 cells [2] = assay: Cell death assay in PAE-ABP1 cells after removal of tetracycline; type: cell-based, porcine; conditions: 48 hours after removal of tetracycline (Myc-ABP1 expressed)
Experimental: FIGS. 7A-B show the induction of cell death by ABP1 in PAE-ABP1 cells. FIG. 7A: Phase contrast photomicrographs at 36 hours after cultivation of PAE-ABP1 cells in the presence (+) and absence (−) of tetracycline (Tet) are shown. FIG. 7B: The ratio (%) of cell death from cultivation in the presence of tetracycline (O hour) and at 24 hours and 48 hours after removal of tetracycline.
FIGS. 9A-B show the caspase dependency of cell death by ABP1. FIG. 9A: PAE-ABP1 cells were cultivated in the absence of tetracycline, and caspase-3 activity was measured after 0, 12, 24, and 36 hours. The results are shown as relative values with the value in the presence of tetracycline taken as 1. FIG. 9B: PAE-ABP1 cells were treated with zVAD-fmk (50 μM) simultaneously with removal of tetracycline, and the ratio (%) of dead cells was quantified. Cell death assay was conducted at 18 hours after removal of tetracycline. […]
When these cells were cultured in the absence of tetracycline, cell death was induced with the expression of the ABP1 protein, as in the transient expression of the ABP1 protein in HeLa cells (FIG. 7A). The ratio of dead cells to all cells (the ratio of cells showing a morphological sign of cell death to all cells was determined under a microscope; the results were shown as the mean for three visual fields) was determined to be about 55% at 48 hours after removal of tetracycline (FIG. 7B).

ASK1 [3] = assay: Immunoblot with anti-phosphorylated ASK1 antibody in PAE-ABP1 cells; type: cell-based, porcine; conditions: 12 hours after tetracycline removal
Source text: as §1, §2

p38 = assay: Immunoblot with anti-phosphorylated p38 antibody in PAE-ABP1 cells; type: cell-based, porcine; conditions: 12 hours after tetracycline removal
Source text: as §1, §2

caspase-3 = assay: Caspase-3 activity (DEVD-AFC fluorometric assay) in PAE-ABP1 cells; type: cell-based, porcine; conditions: absence of tetracycline, around the time of cell death
Experimental: FIGS. 9A-B show the caspase dependency of cell death by ABP1. FIG. 9A: PAE-ABP1 cells were cultivated in the absence of tetracycline, and caspase-3 activity was measured after 0, 12, 24, and 36 hours. The results are shown as relative values with the value in the presence of tetracycline taken as 1. FIG. 9B: PAE-ABP1 cells were treated with zVAD-fmk (50 μM) simultaneously with removal of tetracycline, and the ratio (%) of dead cells was quantified. Cell death assay was conducted at 18 hours after removal of tetracycline. Tet stands for tetracycline.
The same was also confirmed in TUNEL staining of PAE-ABP1 cells. • (4) DNA fragmentation during apoptosis normally occurs subsequent to caspase activation. […] The measurement was conducted using a CPP32/caspase-3 fluorometric protease assay kit (MBL) with the synthetic fluorescence peptide DEVD-7-amino-4-trifluoromethyl coumarin (AFC) as a substrate. The fluorescence intensity from the liberated AFC was measured at an excitation wavelength of 360 nm and a fluorescence wavelength of 530 nm using a fluorescence spectrophotometer. Each sample was assayed twice. The results are shown as relative values with the value in the presence of tetracycline taken as 1.

PAE-ABP1 cells [4] = assay: DNA fragmentation (agarose gel electrophoresis) in PAE-ABP1 cells; type: cell-based, porcine; conditions: after removal of tetracycline
Experimental: PAE-ABP1 cells were examined for DNA fragmentation at each time after removal of tetracycline by agarose gel electrophoresis (upper panel). At both ends are molecular weight markers (M), with their sizes shown at the right end.
PAE-ABPl cells (2×10^6 cells) were lysed in 200 μl of lysis buffer [20 mM Tris-HCl (pH 7.5), 10 mM EDTA, 0.5% Triton X-100]. the lysate was centrifuged, and the supematant was recovered and treated with 0.2 mg/mi proteinase K at 420° C for 1 hour. Subsequently, DNA was purified by the phenol-chloroform extraction method and the ethanol precipitation method, this was lysed again in a TE buffer containing 0.2 mg/ml ribonuclease A (10mM Tris-HCl, 1mM EDTA), the lysate was electrophoresed on 2% agarose gel, stained with ethidium bromide, and the migration pattern was photographed.

effect of H2O2 treatment on binding of ABP1 and ASK1 (ASK1 [1]; H2O2 treatment (0.5 mM, 1 hour)) | Molecule | ratio of cell death among cells expressing the fusion protein (HeLa cells; 36 hours after transfection) | time after transfection at which signs of cell death began (HeLa cells; detachment from the culture plate, membrane blebbing) | binding of ABP1 and ASK1 (co-immunoprecipitation) (ASK1 [1]; immunoprecipitation with anti-Flag antibody, immunoblot) | activation of endogenous JNK (JNK) | ratio of dead cells to all cells (PAE-ABP1 cells [2]) | activation of endogenous ASK1 (ASK1 [3]) | activation of endogenous p38 (p38) | caspase-3 activity (caspase-3) | DNA fragmentation (PAE-ABP1 cells [4])
also enhanced | CFP-ABP1: fusion protein of ABP1 with CFP at the N-terminal (protein, left off: large carriers, fusion protein of ABP1 with CFP at the N-terminal) MRPLDIVELAEPEEVEVLEPEEDFEQFLLPVINEMREDIASLTREHGRAYLRNRSKLWEMDNMLIQIKTQVEASEESALNHLQNPGDAAEGRAAKRCEKAEEKAKEIAKMAEMLVELVRRIEKSESS | about 70% | around 24 hours | binding of the two proteins was confirmed | – | – | – | – | – | –
– | ABP1: ASK1-binding protein of 127 amino acids encoded by gene PGR1 (SEQ ID NO:2); Myc-tagged in PAE-ABP1 cells (protein, listed as Homo sapiens, Myc tag, Myc-tagged in PAE-ABP1 cells) MRPLDIVELAEPEEVEVLEPEEDFEQFLLPVINEMREDIASLTREHGRAYLRNRSKLWEMDNMLIQIKTQVEASEESALNHLQNPGDAAEGRAAKRCEKAEEKAKEIAKMAEMLVELVRRIEKSESS | – | – | – | observed | about 55% | activation of ASK1 was observed | observed | decreased | formed a DNA ladder
